Results from patent publication US20240287172A1 (SCIRHOM, published 2024).

Molecular target: T1, hiR2-FL-H505R-T7 (human, UniProt Q6PJF5 1-856)
T1 sequence: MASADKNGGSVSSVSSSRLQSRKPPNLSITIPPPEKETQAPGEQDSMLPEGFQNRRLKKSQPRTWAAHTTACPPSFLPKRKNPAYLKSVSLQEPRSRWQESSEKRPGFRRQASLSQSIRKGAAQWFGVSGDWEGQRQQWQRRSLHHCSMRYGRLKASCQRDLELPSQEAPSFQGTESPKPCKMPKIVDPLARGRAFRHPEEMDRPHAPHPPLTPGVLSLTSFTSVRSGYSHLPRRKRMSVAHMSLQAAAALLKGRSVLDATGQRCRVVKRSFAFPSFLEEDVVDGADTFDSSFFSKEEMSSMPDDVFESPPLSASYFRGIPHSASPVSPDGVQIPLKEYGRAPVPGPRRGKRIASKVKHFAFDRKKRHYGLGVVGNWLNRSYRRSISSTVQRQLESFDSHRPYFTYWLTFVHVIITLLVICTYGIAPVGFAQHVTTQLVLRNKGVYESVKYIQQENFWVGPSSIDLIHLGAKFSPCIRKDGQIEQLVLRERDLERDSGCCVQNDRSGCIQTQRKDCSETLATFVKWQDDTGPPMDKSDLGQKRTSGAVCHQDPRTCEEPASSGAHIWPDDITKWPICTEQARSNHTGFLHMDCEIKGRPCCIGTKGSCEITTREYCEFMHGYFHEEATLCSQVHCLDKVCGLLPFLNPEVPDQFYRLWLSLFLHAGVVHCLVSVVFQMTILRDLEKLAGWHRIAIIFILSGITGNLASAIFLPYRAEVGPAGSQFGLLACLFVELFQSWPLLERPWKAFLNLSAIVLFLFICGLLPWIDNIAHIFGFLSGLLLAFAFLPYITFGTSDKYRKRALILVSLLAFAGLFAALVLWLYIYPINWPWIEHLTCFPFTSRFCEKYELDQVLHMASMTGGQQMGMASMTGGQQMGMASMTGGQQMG
Test: FACS, MEF-DKO cells, 3 µg/ml

B1: antibody 50 (antibody, V domains shown)
VH: QVQLQQSGAELVRPGASVKVSCKASGYAFSNYLIEWVKQRPGQGLEWIGVINPGSGFTKYNEKFKGKATLTADKSSSTAYMQLSSLTSEDSAVYFCARGLYRAMDYWGQGTSVTVSS
VL: DIQMTQSPASQSASLGESVTITCLASQTIGTWLAWYQQKPGKSPQLLIYAAASLADGVPSRFSGGGSGTKFSFKISSLQAEDFVNYYCQQIYSTPYTFGGGTKLEIK
notes: mouse IgG, kappa light chain; also called clone #50; purified antibody 50
loss of binding vs wild type: ≥ 95%
